B1: Fab of ADI-74966 (Antibody No. 4) (Fab, V domains shown)
VH: QVQLVQSGAEVKKPGASVKVSCKASGFNIKDYYMHWVRQAPGQRLEWMGWIDLENANTIYDAKFQGRVTITRDTSASTAYMELSSLRSEDTAVYYCARDHYHRYFYDVWGQGTLVTVSS
VL: DIVMTQSPDSLAVSLGERATINCKSSQSLLNARTGHNYLAWYQQKPGQPPKLLIYWASTRESGVPDRFSGSGSGTDFTLTISSLQAEDVAVYYCKQSYSHRTFGGGTKVEIK
notes: Fab made by papain digestion of the human IgG1 (yeast- or CHO-produced); also called Antibody No. 4 Fab; ADI-74966 Fab
B2: Fab of ADI-79842 (Antibody No. 7) (Fab, V domains shown)
VH: B1 VH with H102G
VL: B1 VL with H36K, H100R
notes: Fab made by papain digestion of the yeast-produced human IgG1; also called Antibody No. 7 Fab; ADI-79842 Fab
B3: Fab of ADI-79845 (Antibody No. 11) (Fab, V domains shown)
VH: B1 VH with H100A, H102G
VL: B1 VL with H36K
notes: Fab made by papain digestion of the yeast-produced human IgG1; also called Antibody No. 11 Fab; ADI-79845 Fab
B4: Fab of ADI-79844 (Antibody No. 10) (Fab, V domains shown)
VH: B1 VH with H100A, H102G
VL: B1 VL with H36K, Y98H, H100R
notes: Fab made by papain digestion of the yeast-produced human IgG1; also called Antibody No. 10 Fab; ADI-79844 Fab
B5: Fab of ADI-79843 (Antibody No. 8) (Fab, V domains shown)
VH: B1 VH with H100A
VL: B1 VL with H36K, H100R
notes: Fab made by papain digestion of the yeast-produced human IgG1; also called Antibody No. 8 Fab; ADI-79843 Fab
B6: Fab of ADI-79848 (Antibody No. 9) (Fab, V domains shown)
VH: B1 VH with H100A, H102G
VL: B1 VL with H100R
notes: Fab made by papain digestion of the yeast-produced human IgG1; also called Antibody No. 9 Fab; ADI-79848 Fab
B7: ADI-79842 (Antibody No. 7), human IgG1 (antibody, V domains shown)
VH: B1 VH with H102G
VL: B1 VL with H36K, H100R
notes: Tested as yeast-produced aglycosylated human IgG1
B8: ADI-79846 (Antibody No. 12), human IgG1 (antibody, V domains shown)
VH: B1 VH with E82G, H102G
VL: B1 VL with Y98H
notes: as for B7
B9: ADI-79847 (Antibody No. 13), human IgG1 (antibody, V domains shown)
VH: B1 VH
VL: B1 VL with Y98H, H100R
notes: as for B7
B10: ADI-79848 (Antibody No. 9), human IgG1 (antibody, V domains shown)
VH: B1 VH with H100A, H102G
VL: B1 VL with H100R
notes: as for B7
B11: ADI-79845 (Antibody No. 11), human IgG1 (antibody, V domains shown)
VH: B1 VH with H100A, H102G
VL: B1 VL with H36K
notes: as for B7
B12: ADI-79843 (Antibody No. 8), human IgG1 (antibody, V domains shown)
VH: B1 VH with H100A
VL: B1 VL with H36K, H100R
notes: as for B7
B13: ADI-79844 (Antibody No. 10), human IgG1 (antibody, V domains shown)
VH: B1 VH with H100A, H102G
VL: B1 VL with H36K, Y98H, H100R
notes: as for B7

Residue numbers refer to the chain shown, from its start.

T1 sequence (chain, as listed by the source mutant, form in doubt, chain 1 of 2): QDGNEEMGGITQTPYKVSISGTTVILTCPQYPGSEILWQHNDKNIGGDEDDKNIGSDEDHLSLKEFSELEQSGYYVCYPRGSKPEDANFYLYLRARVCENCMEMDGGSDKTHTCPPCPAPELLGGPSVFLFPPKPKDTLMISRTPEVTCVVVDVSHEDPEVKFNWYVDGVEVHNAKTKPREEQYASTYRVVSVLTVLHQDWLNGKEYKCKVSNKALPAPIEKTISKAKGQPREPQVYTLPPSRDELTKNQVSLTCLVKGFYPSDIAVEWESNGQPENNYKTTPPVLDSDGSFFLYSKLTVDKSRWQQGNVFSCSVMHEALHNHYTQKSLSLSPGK
T1 sequence (P04234 22-100, stated change not applied, form in doubt, chain 2 of 2): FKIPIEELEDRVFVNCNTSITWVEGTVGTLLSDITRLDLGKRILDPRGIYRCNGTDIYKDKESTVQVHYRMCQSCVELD
T2 sequence (chain, as listed by the source mutant, form in doubt, chain 1 of 2): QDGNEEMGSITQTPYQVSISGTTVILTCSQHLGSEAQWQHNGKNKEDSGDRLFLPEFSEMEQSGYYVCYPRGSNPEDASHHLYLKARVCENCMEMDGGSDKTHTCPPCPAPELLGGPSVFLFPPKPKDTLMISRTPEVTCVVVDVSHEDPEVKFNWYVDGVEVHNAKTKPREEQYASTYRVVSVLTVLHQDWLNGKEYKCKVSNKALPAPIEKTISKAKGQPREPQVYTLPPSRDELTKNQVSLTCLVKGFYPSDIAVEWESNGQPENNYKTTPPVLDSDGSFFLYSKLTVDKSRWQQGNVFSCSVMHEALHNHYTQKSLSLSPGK
T2 sequence (Q95LI8 22-100, stated change not applied, form in doubt, chain 2 of 2): as the sequence (P04234 22-100, stated change not applied, form in doubt, chain 2 of 2) above, with I5V, N15K, I20V, S32T, D33N, I34N, T64A, S74N counted along it
T3 sequence (Q95LI5 22-198): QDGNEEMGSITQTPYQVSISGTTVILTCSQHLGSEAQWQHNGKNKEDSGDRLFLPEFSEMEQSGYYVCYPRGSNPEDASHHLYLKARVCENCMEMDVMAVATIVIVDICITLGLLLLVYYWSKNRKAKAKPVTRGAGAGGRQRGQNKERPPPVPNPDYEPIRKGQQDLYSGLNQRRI

One assay addresses T1, human CD3εδ-Fc heterodimer (Hu CD3ε Fc / CD3δ Fc-HIS) (human, UniProt P04234 22-100).
T1 construct: range 22-100; Produced in HEK 293 cells with a heterologous signal peptide; heterodimer purified by Ni Sepharose and Mono Q; also called Hu CD3εδ Fc heterodimer; CD3εδ Fc-HIS heterodimer; not shown: Fc-HIS part of CD3δ Fc-HIS
In words: SPR (Biacore 8K), CHO-produced Fab, monovalent, pH 6.0. Here is the method: (§1) Anti-CD3 antibodies (Antibody Nos. 1-13) were produced as human IgG1 antibodies in yeast or Chinese hamster ovary (CHO) cells, and Fab fragments were generated from the IgG1 antibodies by papain digestion and purified IgGs produced in yeast were aglycosylated. CHO produced IgGs had standard CH2 glycosylation. […] Monovalent binding affinity to human or cynomolgus CD3εδ-Fc at pH 7.4 and pH 6.0 were measured via surface plasmon resonance (SPR) using the BIACORE® 8K (Cytiva, previously GE Healthcare Life Sciences) system and analyzed using BIACORE® Evaluation Software.
(§2) BIACORE® KD measurements (surface plasmon resonance; SPR). BIACORE® affinity measurements were performed generally as previously described. Briefly, human CD3εδ-Fc heterodimer produced as described above was immobilized to a NiNTA sensor chip in a BIACORE® 8K (Cytiva, previously GE Healthcare Life Sciences) to a response level of ˜500 RUs. […] The sensor chip was doubly regenerated between cycles using 0.35 M EDTA and 0.1 M NaOH. The resulting data were double reference subtracted and fit to a 1:1 binding model using BIACORE® Evaluation Software.
Background: Surface plasmon resonance follows binding to a sensor surface in real time, without labels.
As a reminder, the Kd is a measure of binding affinity in units of concentration. A lower Kd goes with higher affinity. Regarding B1, the affinity, expressed as Kd, was 19.5 nM.

The next assay addresses T2, cynomolgus CD3εδ-Fc heterodimer (Cy CD3ε Fc / CD3δ Fc-HIS) (cynomolgus, UniProt Q95LI8 22-100).
T2 construct: range 22-100; Produced in HEK 293 cells; also called Cy CD3εδ Fc heterodimer; not shown: Fc-HIS part of CD3δ Fc-HIS
Described as above. The method, then: as §1, §2
As for B1, the Kd was determined as 26.1 nM.

In another assay the target is T1, human CD3εδ-Fc heterodimer (Hu CD3ε Fc …). In words: SPR (Biacore 8K), yeast-produced Fab, monovalent, pH 6.0. The method, then: as §1, §2
On to B2, for which the equilibrium dissociation constant (Kd) was determined as 6.16 nM.

B3 came in with an equilibrium dissociation constant (Kd) of 1.96 nM.

B4 yielded a dissociation constant Kd of 2.34 nM.

Take B5: the equilibrium dissociation constant (Kd) amounted to 0.796 nM.

In the case of B6, the Kd was 5.76 nM.

Molecule B1 came in with a Kd of 16.3 nM.

Another assay shares this target. Put plainly: SPR (Biacore 8K), yeast-produced Fab, monovalent, pH 7.4. Here is the method: as §1, §2
B2 displayed a Kd of 32.6 nM.

As for B3, the dissociation constant Kd was 8.5 nM.

Molecule B4 registered a Kd of 3.45 nM.

In the case of B5, the dissociation constant (Kd) was found to be 5.9 nM.

Turning to B6, the Kd turned out to be 33.4 nM.

Another assay concerns the target T3, cynomolgus CD3 on HSC-F cells (cynomolgus, UniProt Q95LI5 22-198).
T3 construct: whole, on cells; also called Cyno HSC-F; cynomolgus HSC-F cells
Put plainly: flow cytometry, yeast-produced IgG 100 nM on HSC-F cells, pH 6.0. The method, then:
(§3) Anti-CD3 antibodies Antibody Nos. 1-13 were produced as aglycosylated IgGs comprising a IgG1 Fc region in yeast cells. Binding to human or cynomolgus CD3-expressing cells (human CD3+ Jurkat cells or cynomolgus HSC-F cells, respectively) at pH 7.4 and pH 6.0 were measured by fluorescence-activated single cell sorting (FACS). Normalized cell binding (NCB) values were calculated based on median fluorescence intensity (MFI) values, CD3 negative Jurkat cells were used as a negative control.
(§4) Cell binding assay, CD3+ and CD3− human Jurkat cells (ATCC) and cynomolgus HSC-F cells (NIH) were thawed and washed with cold PBSF buffer, pH 7.4 (PBS+0.1% BSA, pH 7.4). About 200,000 cells were aliquoted per well of a 96-well plate (FACS Assay Plate VWR BD 353263) and pelleted by centrifugation (5 minutes at 500×g). The cells were washed with either PBSF pH 7.4 or PBSF pH 6.0 (PBS+0.1% BSA, pH 6.0), and then resuspended in 100 μl in either PBSF pH 7.4 or PBSF pH 6.0 with IgG antibody (100 nM) produced in yeast as described above. The mixture (cells+antibody) was incubated for 20 minutes on ice, then washed twice with either PBSF pH 7.4 or PBSF pH 6.0. Cells were resuspended in 50 μl of propidium iodide (Roche; 1:500 dilution) and anti-human IgG-RPE (Southern Biotech; 1:100 dilution) prepared in either PBSF pH 7.4 or PBSF pH 6.0, then incubated for 20 minutes on ice in the dark before cells were washed twice with either PBSF pH 7.4 or PBSF pH 6.0. Binding was analyzed on FACS Canto 11.
(In general: In flow cytometry, cells or beads pass a laser one at a time.)
For the molecule B7, the NCB was 575.

Turning to B8, the NCB was found to be 235.

For the molecule B9, the NCB turned out to be 2.

On to B10, for which the NCB came out at 550.

B11 showed an NCB of 581.

In turn, B12 showed an NCB of 603.

In turn, B13 yielded an NCB of 603.

The next assay concerns the target T3, cynomolgus CD3 on HSC-F cells. In words: flow cytometry, yeast-produced IgG 100 nM on HSC-F cells, pH 7.4. The method, then: as §3, §4
Molecule B7 had an NCB of 172.

In the case of B8, the NCB was found to be 2.

B9: the NCB turned out to be 0.

As for B10, the NCB stood at 173.

Regarding B11, the NCB came to 167.

In turn, B12 had an NCB of 174.

For B13, the NCB came to 160.

In the next assay the target is T4, human CD3 on CD3+ Jurkat cells (human, UniProt P07766 23-207).
T4 construct: whole, on cells; The whole CD3 complex stands on the cells; also called Human CD3 Jurkat; human CD3+ Jurkat cells
T4 sequence (P07766 23-207): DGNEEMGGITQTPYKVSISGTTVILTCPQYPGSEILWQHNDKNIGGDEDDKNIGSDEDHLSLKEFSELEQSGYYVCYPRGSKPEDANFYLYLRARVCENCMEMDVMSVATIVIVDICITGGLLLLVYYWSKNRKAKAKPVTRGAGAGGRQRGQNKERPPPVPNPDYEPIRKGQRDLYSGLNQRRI
Put plainly: flow cytometry, yeast-produced IgG 100 nM on CD3+ Jurkat cells, pH 6.0. Here is the method: as §3, §4
In turn, B7 came in with an NCB of 208.

B8 showed an NCB of 65.

Regarding B9, the NCB amounted to 0.

Consider B10, for which the NCB is 200.

B11 registered an NCB of 200.

In turn, B12 registered an NCB of 207.

B13 displayed an NCB of 196.

Another assay has as its target T4, human CD3 on CD3+ Jurkat cells. Put plainly: flow cytometry, yeast-produced IgG 100 nM on CD3+ Jurkat cells, pH 7.4. Here is the method: as §3, §4
The molecule B7 showed an NCB of 139.

Molecule B8 gave an NCB of 4.

In the case of B9, the NCB was 0.

B10 showed an NCB of 136.

Regarding B11, the NCB came out at 149.

Consider B12, for which the NCB is 149.

For the molecule B13, the NCB stood at 147.

Another assay deals with T1, human CD3εδ-Fc heterodimer (Hu CD3ε Fc …). In words: BLI (Octet), CD3εδ-Fc on AHC sensor, CHO-derived Fab 100 nM in solution, pH 6.0. A general note: BLI is a label-free optical method that tracks binding on a fibre tip over time.
With B1, the Kd is 36.7 nM.

The next assay shares this target. Put plainly: BLI (Octet), yeast-produced IgG on AHC sensor, CD3εδ-Fc 100 nM in solution, pH 6.0. Here is the method:
(§5) Anti-CD3 antibodies Antibody Nos. 1-13 were produced as human IgG1 antibodies in yeast or CHO cells. IgGs produced in yeast were aglycosylated, CHO) produced IgGs had standard CH2 glycosylation. Binding affinity to human or cynomolgus CD3εδ-Fc at pH 7.4 and pH 6.0 was measured via biolayer interferometry (BLI) using the ForteBio OCTET® HTX system and analyzed using the ForteBio software.
(§6) Kinetics were analyzed using the 1:1 binding model.
For B7, the Kd amounted to 6.52 nM.

With B8, the Kd is 8.09 nM.

For B10, the dissociation constant (Kd) was found to be 6.47 nM.

In turn, B11 displayed a Kd of 1.04 nM.

B12 yielded a dissociation constant (Kd) of 1.6 nM.

Regarding B13, the Kd was 3.6 nM.

The next assay deals with T2, cynomolgus CD3εδ-Fc heterodimer (Cy …). The description is as above. The method, then:
as §5, §6
Consider B7, for which binding was characterised by a dissociation constant (Kd) of 6.88 nM.

For the molecule B8, the Kd turned out to be 11.8 nM.

B10 yielded a Kd of 6.28 nM.

B12 had a dissociation constant Kd of 1.76 nM.

In turn, B13 gave an equilibrium dissociation constant (Kd) of 2.94 nM.

The next assay concerns the target T1, human CD3εδ-Fc heterodimer (Hu CD3ε Fc …). In words: BLI (Octet), yeast-produced IgG on AHC sensor, CD3εδ-Fc 100 nM in solution, pH 7.4. The method, then: as §5, §6
In turn, B7 displayed a Kd of 16.1 nM.

Regarding B10, the Kd was determined as 11.6 nM.

For B11, the Kd was 9.87 nM.

Turning to B12, the dissociation constant (Kd) was found to be 6.64 nM.

As to B13, the Kd came to 6.51 nM.

Another assay deals with T2, cynomolgus CD3εδ-Fc heterodimer (Cy …). The description is as above. The method, then: as §5, §6
Turning to B7, the equilibrium dissociation constant (Kd) stood at 17.9 nM.

For B10, the equilibrium dissociation constant (Kd) came out at 14.5 nM.

For B11, the Kd is 8.06 nM.

B12 had a Kd of 5.66 nM.

B13 registered a Kd of 5.42 nM.

The values above are taken from patent US20260152557A1 (Adimab, published 2026).
